Measured values published in US20240240209A1, “SYNTHESIS OF ENANTIOPURE CIS-A-IRONE FROM A RENEWABLE CARBON SOURCE” (Agency for Science, Technology and Research, priority 2021, published 2024).
Substitutions are numbered along the chain they refer to. Names may count otherwise. “Also recorded” adds a separate entry of the source.

B1: pMT1_E153A: pMT1 with E153A (protein)
chain: MPQEARTPQQQVTADEVGDWYDKFGEVYHLTLGESVHCGLWFPPDAPVPQDMELVTMSSQAQDRYTDYLIETLDPKAGQHLLDIGCGTGRTALKAARQRGIAVTGVAVSKEQIAAANRLAAGHGLTERLTFEVADAMRLPYEDESFDCAWAIASLCHMDRAKALGEAWRVLKPGGDLLVLESVVTEELTEPETALFETLYAANVPPRLGEFFDIVSGAGFHTLSLKDLSANLAMTMNVFALGVYSRRAEFTERFGAEFVDGLLAGLGSAQETLIRKTRFFMATLRKPAV
B2: pMT1_E153C: pMT1 with E153C (protein)
chain: B1 chain with A153C
B3: pMT1_E153Y: pMT1 with E153Y (protein)
chain: B1 chain with A153Y
B4: pMT1_E153D: pMT1 with E153D (protein)
chain: B1 chain with A153D
B5: pMT1_E153W: pMT1 with E153W (protein)
chain: B1 chain with A153W
B6: pMT1_M236W: pMT1 with M236W (protein)
chain: B1 chain with A153E, M236W
B7: pMT1_M236A: pMT1 with M236A (protein)
chain: B1 chain with A153E, M236A
B8: pMT1_M236E: pMT1 with M236E (protein)
chain: B1 chain with A153E, M236E
B9: pMT1_M236C: pMT1 with M236C (protein)
chain: B1 chain with A153E, M236C
B10: pMT1_M236Y: pMT1 with M236Y (protein)
chain: B1 chain with A153E, M236Y
B11: pMT1_M236D: pMT1 with M236D (protein)
chain: B1 chain with A153E, M236D
B12: pMT1_R160A: pMT1 with R160A (protein)
chain: B1 chain with A153E, R160A
B13: pMT1_R160Y (protein)
chain: B1 chain with A153E, R160Y
B14: pMT1_R160C: pMT1 with R160C (protein)
chain: B1 chain with A153E, R160C
B15: pMT1_R160D (protein)
chain: B1 chain with A153E, R160D
B16: pMT1_R160E (protein)
chain: B1 chain with A153E, R160E
B17: pMT1_S182E: pMT1 with S182E (protein)
chain: B1 chain with A153E, S182E
B18: pMT1_Y200A: pMT1 with Y200A (protein)
chain: B1 chain with A153E, Y200A
B19: pMT1_Y200D: pMT1 with Y200D (protein)
chain: B1 chain with A153E, Y200D
B20: pMT1_Y200E: pMT1 with Y200E (protein)
chain: B1 chain with A153E, Y200E
B21: pMT1_Y200C: pMT1 with Y200C (protein)
chain: B1 chain with A153E, Y200C
B22: D176V (protein)
chain: MPQEARTPQQQVTADEVGDWYDKFGEVYHLTLGESVHCGLWFPPDAPVPQDMELVTMSSQAQDRFTDYLIETLDPKAGQHLLDIGCGTGRPALKAARQRGIAVTGVAVSKEQIAAANRLAAGHGLTERLTFEVADAMRLPYEDESFDCAWAIESLDHMDRAKALGEAWRVLKPGGVLLVAEEVVTEELTEPETALFETLFALNVPPRLGEFFDIVSGAGFHTLSLKDLSADLAMTMNVFALGVYSRRAEFTERFGAEFVDGLLAGLGSAQETVIRKTRFFMATLRKPAV
modifications: Modified from pMT1
B23: D159L (protein)
chain: B22 chain with D159L, V176D
modifications: Modified from pMT1
B24: P191V (protein)
chain: B22 chain with V176D, P191V
modifications: Modified from pMT1
B25: D176K (protein)
chain: B22 chain with V176K
modifications: Modified from pMT1
B26: D176L: pMT12 with D176L (protein)
chain: B22 chain with V176L
modifications: Modified from pMT1
B27: D176L, A248V: pMT12 with D176L and A248V (protein)
chain: B22 chain with V176L, A248V
modifications: Modified from pMT1
B28: Q11H (protein)
chain: B22 chain with Q11H, V176D
modifications: Modified from pMT1
B29: D176Y (protein)
chain: B22 chain with V176Y
modifications: Modified from pMT1

Assay: Cell lysate reaction of pMT enzymes with psi-ionone, irones quantified by HS-SPME-GCMS
Type: biochemical
Conditions: pMT1_E153 mutants; AUC vs non-mutated (=1)
In short: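 pMT1 site-saturation mutants were expressed in E. coli BL21(DE3) and lysed, and lysates were incubated 2 days at 28 °C with 0.2 mM SAM and 10 mg/L psi-ionone (plus caryophyllene) in 50 mM Tris pH 7, 10 mM MgCl2. Cis-α-irone was measured by HS-SPME-GCMS peak area and given as fold change over non-mutated enzyme.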

Row | Molecule | fold change in cis-α-irone produced
1 | B1 | 0.1
2 | B2 | 0.0
3 | B3 | 0.0
4 | B4 | 0.2
5 | B5 | 0.0

Same assay, conditions: pMT1_M236 mutants; AUC vs non-mutated (=1)

Row | Molecule | fold change in cis-α-irone produced
6 | B6 | 0.2
7 | B7 | 0.7
8 | B8 | 0.9
9 | B9 | 4.7
10 | B10 | 0.0
11 | B11 | 0.0

Same assay, conditions: pMT1_R160 mutants; AUC vs non-mutated (=1)

Row | Molecule | fold change in cis-α-irone produced
12 | B12 | 1.7
13 | B13 | 1.3
14 | B14 | 1.5
15 | B15 | 0.0
16 | B16 | 0.0

Same assay, conditions: pMT1_S182 mutants; AUC vs non-mutated (=1)

Row | Molecule | fold change in cis-α-irone produced
17 | B17 | 0.84

Same assay, conditions: pMT1_Y200 mutants; AUC vs non-mutated (=1)

Row | Molecule | fold change in cis-α-irone produced
18 | B18 | 0.2
19 | B19 | 0.0
20 | B20 | 0.0
21 | B21 | 0.1

Assay: In-vivo cis-α-irone production screening of pMT7 and pMT12 mutants
Type: cell-based, Escherichia coli
Conditions: mutations made to pMT12; normalized to pMT12 (=1)
Text: Q60 was identified as another possible mutation site.
FIGS. 24a and 24b show the in-vivo and in-vitro cis-α-irone production of other possible single mutations to pMT12. The in-vitro results in FIG. 24b validate the mutations and in-vivo results in FIG. 24a. The mutations in FIG. 24 include Q11H (SEQ ID No. 23), V12R (SEQ ID No. 24), A95C (SEQ ID No. 25), H123Q (SEQ ID No. 26), E127T (SEQ ID No. 27), M137T (SEQ ID No. 28), D176V (SEQ ID No. 29), D176Y (SEQ ID No. 30). P191S (SEQ ID No. 31), P191V (SEQ ID No. 32), F212L (SEQ ID No. 33), S268H (SEQ ID No. 34), AND T272A (SEQ ID No. 35). The screening results in FIGS. 24 and 25 are semi-quantitative to identify beneficial mutants that give greater than one-fold change of irone production as compared to pMT12.
FIGS. 25a to 25c (and Table 4) show the in-vivo testing results of other possible mutations that may be made to pMT12 to improve its in-vivo production of cis-α-irone. FIGS. 25a to 25c each include two dotted lines to account for a 10% error bar to show the normalized fold change of 0.9 and 1.1.
The four plasmids were transformed into E. coli BL21 (DE3), ΔaroA, ΔaroB, ΔaroC, ΔserC or E. coli BL21 (DE3), ΔaroA, ΔaroB, ΔaroC, ΔserC, ΔmetJ strains and plated on Agar plate containing LB media (10 g, tryptone. 5 g, yeast extract. 10 g, NaCl) supplemented with appropriate antibiotics (100 mg/L ampicillin, 34 mg/L chloramphenicol, 50 mg/L kanamycin, and 100 mg/L spectinomycin). One colony was picked and inoculate into LB media with antibiotics. 1% of overnight culture was inoculated into 1 ml fresh auto-inducing chemically defined media. The chemical media contains carbon source solution: 0.5 g/L glucose, 10 g/L glycerol; inducer: 30 mM lactose and base media: 2 g/L ammonium sulfate, 4.2 g/L KH2PO4, 11.24 g/L K2HPO4, 1.7 g/L citric acid, 0.5 g/L MgSO4, and 10 mL/L trace element solution. The trace element solution (100×) contained 0.25 g/L CoCl2·6H2O, 1.5 g/L MnSO4·4H2O, 0.15 g/L CuSO4·2H2O, 0.3 g/L H3BO3, 0.25 g/L Na2MoO4·2H2O, 0.8 g/L Zn(CH3COO)2, 5 g/L Fe(III) citrate, and 0.84 g/L ethylenediaminetetra-acetic acid (EDTA) at pH 8.0. The culture was grown at 28° C. for 3 days and the products were extracted with 1 ml hexane for GCMS analysis. An example of a fed-batch process for α-ionone Is briefly described, overnight culture was inoculated into 2 L chemical media comprising the base media and 5 g/L glucose, at 37° C. and 30% DO. pH was controlled at 7 with base solution (14% ammonia and 0.5 M NaOH). Feed media (500 g/L glucose and 5 g/L MgSO4) was added into bioreactor once OD600 reached 5, at a rate of 7.15-25.75 g/h glucose for about 4-5 h until OD600 reached ˜30-40. Subsequently, 0.1 mM IPTG was added to induce the production, and feeding rate was kept at a constant rate of 10 g/h glucose, and the temperature was reduced to 30° C. DO was adjusted to 2% or 10%. Feeding was stopped at 113 h when 2 L feeding media was finished, but the culture was further incubated for 24 h. To capture the evaporated products, the exhaust was connected to 25 ml sunflower oil.

Row | Molecule | Fold change in in-vivo cis-α-irone production
22 | B22 | 2.24
23 | B23 | 1.55
24 | B24 | 1.26
25 | B25 | 1.90
26 | B26 | 2.52
27 | B27 | 3.14

Same assay, conditions: single mutations vs parent (pMT7 or pMT12)

Row | Molecule | in-vivo production of cis-α-irone (in words)
28 | B28 | significant increase
29 | B22 | significant increase; also recorded: significant improvement
30 | B23 | significant improvement
31 | B24 | significant increase
32 | B29 | significant increase
33 | B25 | significant improvement
34 | B26 | significant improvement
35 | B27 | significant improvement
